Blank lines part the entries; values can stand above or below the sequence they belong to.
How the values were obtained:
HLA-A*26:01 = assay: IEDB peptide-MHC binding, purified MHC/competitive/radioactivity; filed as Kd, often an IC50 or EC50 that approximates it; ≥ and ≤ were set here for values at or beyond the usual limits of such assays
HLA-A*29:02 = assay: as above
HLA-A*24:02 = assay: as above
HLA-A*23:01 = assay: as above
HLA-A*30:02 = assay: as above
HLA-A*01:01 [1] = assay: as above
HLA-B*08:01 = assay: as above
HLA-B*53:01 = assay: as above
HLA-A*69:01 = assay: IEDB peptide-MHC binding, purified MHC/direct/fluorescence; filed as Kd, often an IC50 or EC50 that approximates it; ≥ and ≤ were set here for values at or beyond the usual limits of such assays; conditions: source organism: Homo sapiens
HLA-B*58:01 = assay: as above; conditions: source organism: Homo sapiens
HLA-B*07:02 = assay: as above; conditions: source organism: Homo sapiens
HLA-A*03:01 = assay: as above; conditions: source organism: SARS-CoV1
HLA-A*11:01 = assay: as above; conditions: source organism: SARS-CoV1
HLA-B*15:01 = assay: as above; conditions: source organism: SARS-CoV1
HLA-B*27:05 = assay: as above; conditions: source organism: SARS-CoV1
HLA-A*01:01 [2] = assay: as above; conditions: source organism: SARS-CoV1
HLA-B*44:02 = assay: IEDB peptide-MHC binding, purified MHC/competitive/radioactivity; filed as Kd, often an IC50 or EC50 that approximates it; ≥ and ≤ were set here for values at or beyond the usual limits of such assays
HLA-B*44:03 = assay: as above
HLA-B*40:01 = assay: as above
[3] = source organism: SARS coronavirus Tor2
[4] = source organism: Vaccinia virus WR
[5] = source organism: Mammarenavirus brazilense
[6] = source organism: Dengue virus 2 Jamaica/1409/1983
[7] = source organism: Dengue virus 1 Brazil/97-11/1997
[8] = source organism: Dengue virus 4 Philippines/H241/1956
[9] = source organism: Lassa virus Josiah
[10] = source organism: Dengue virus 3 Martinique/1243/1999
[11] = source organism: Mammarenavirus choriomeningitidis
[12] = source organism: Mammarenavirus guanaritoense
[13] = source organism: Mammarenavirus whitewaterense

Sequence: LTNDNTSRY
Kd (HLA-A*26:01; [3]): 6.48 nM | Kd (HLA-A*29:02; [3]): 31.6 nM | Kd (HLA-A*24:02; [3]): ≥ 77600 nM | Kd (HLA-A*23:01; [3]): ≥ 77800 nM | Kd (HLA-A*30:02; [3]): 8.9 nM | Kd (HLA-A*01:01 [1]; [3]): 1.59 nM

Sequence: LWLLWPVTL
Kd (HLA-A*26:01; [3]): ≥ 77900 nM | Kd (HLA-A*29:02; [3]): 1840 nM | Kd (HLA-A*23:01; [3]): 7.42 nM | Kd (HLA-A*30:02; [3]): 5030 nM | Kd (HLA-A*01:01 [1]; [3]): ≥ 78100 nM

Sequence: MFFIRFGKM
Kd (HLA-B*08:01; [4]): 31.9 nM

Sequence: MFKTKGRYNL
Kd (HLA-A*29:02; [5]): 68.9 nM | Kd (HLA-A*24:02; [5]): 7170 nM | Kd (HLA-A*23:01; [5]): 2070 nM

Sequence: MGLGKGWPL
Kd (HLA-B*08:01; [6]): 8.72 nM

Sequence: MMKWIISIL
Kd (HLA-B*08:01; [4]): 1.28 nM

Sequence: MTTEDMLSVW
Kd (HLA-A*26:01; [7]): 2090 nM | Kd (HLA-B*53:01; [7]): 856 nM

Sequence: MVKPKGKVV
Kd (HLA-B*08:01; [8]): 44.6 nM

Sequence: MYIFFASFYY
Kd (HLA-A*26:01; [3]): 575 nM | Kd (HLA-A*29:02; [3]): 0.449 nM | Kd (HLA-A*24:02; [3]): 6650 nM | Kd (HLA-A*23:01; [3]): 722 nM | Kd (HLA-A*30:02; [3]): 9.07 nM | Kd (HLA-A*01:01 [1]; [3]): 6700 nM

Sequence: NPSFKRQII
Kd (HLA-B*08:01; [4]): 19.5 nM

Sequence: NRRRRTAGV
Kd (HLA-B*08:01; [6]): 121 nM

Sequence: RLKTRIRNL
Kd (HLA-B*08:01; [4]): 0.694 nM

Sequence: RMVMTTTANW
Kd (HLA-B*53:01; [8]): 20.5 nM | Kd (HLA-A*23:01; [8]): 52.8 nM

Kd (HLA-A*69:01): 5060 nM | Kd (HLA-B*58:01): 18800 nM | Kd (HLA-B*07:02): 146 nM
Sequence: RPAKSMDSL

Sequence: RVDFCGKGY
Kd (HLA-A*26:01; [3]): 7680 nM | Kd (HLA-A*29:02; [3]): 9230 nM | Kd (HLA-A*24:02; [3]): ≥ 77600 nM | Kd (HLA-A*23:01; [3]): ≥ 77800 nM | Kd (HLA-A*30:02; [3]): 20 nM | Kd (HLA-A*03:01): 1890 nM | Kd (HLA-A*11:01): 7730 nM | Kd (HLA-B*15:01): 1090 nM | Kd (HLA-B*27:05): 3890 nM | Kd (HLA-A*01:01 [2]): 1000 nM

Sequence: RYNLPTMCDI
Kd (HLA-A*26:01; [3]): ≥ 69700 nM | Kd (HLA-A*29:02; [3]): 5260 nM | Kd (HLA-A*24:02; [3]): 601 nM | Kd (HLA-A*23:01; [3]): 180 nM | Kd (HLA-A*30:02; [3]): 90 nM | Kd (HLA-A*01:01 [1]; [3]): ≥ 70400 nM

Sequence: RYNTRGNTY
Kd (HLA-A*26:01; [3]): ≥ 52200 nM | Kd (HLA-A*29:02; [3]): 1770 nM | Kd (HLA-A*24:02; [3]): 1790 nM | Kd (HLA-A*23:01; [3]): 8930 nM | Kd (HLA-A*30:02; [3]): 31.3 nM | Kd (HLA-A*01:01 [1]; [3]): 13900 nM

Sequence: SDAHKKNLY
Kd (HLA-A*26:01; [9]): ≥ 77900 nM | Kd (HLA-A*29:02; [9]): ≥ 69700 nM | Kd (HLA-A*24:02; [9]): ≥ 77500 nM | Kd (HLA-A*23:01; [9]): ≥ 77700 nM | Kd (HLA-A*30:02; [9]): 1640 nM | Kd (HLA-A*01:01 [1]; [9]): 1120 nM

Sequence: SINVKHTSV
Kd (HLA-B*08:01; [4]): 13.3 nM

Sequence: SNKRKVLAI
Kd (HLA-B*08:01; [4]): 1.85 nM

Sequence: SPLSKCVVV
Kd (HLA-B*08:01; [4]): 30.9 nM

Sequence: TENILTVLL
Kd (HLA-B*44:02; [10]): 0.409 nM | Kd (HLA-B*44:03; [10]): 351 nM | Kd (HLA-B*40:01; [10]): 12.2 nM

Sequence: TPELEEEMF
Kd (HLA-B*53:01; [10]): 1970 nM

Sequence: VEMGEAAGI
Kd (HLA-B*44:02; [6]): 26.5 nM | Kd (HLA-B*44:03; [6]): 206 nM | Kd (HLA-B*40:01; [6]): 268 nM

Sequence: VFQSATKII
Kd (HLA-A*26:01; [3]): ≥ 43600 nM | Kd (HLA-A*29:02; [3]): 0.0425 nM | Kd (HLA-A*24:02; [3]): 0.211 nM | Kd (HLA-A*23:01; [3]): 0.162 nM | Kd (HLA-A*30:02; [3]): 199 nM | Kd (HLA-A*01:01 [1]; [3]): ≥ 59200 nM

Sequence: VKMPTHRHI
Kd (HLA-A*26:01; [11]): ≥ 77900 nM | Kd (HLA-A*29:02; [11]): ≥ 78900 nM | Kd (HLA-A*24:02; [11]): ≥ 77500 nM | Kd (HLA-A*23:01; [11]): ≥ 77700 nM | Kd (HLA-A*30:02; [11]): ≥ 76900 nM | Kd (HLA-A*01:01 [1]; [11]): ≥ 78100 nM

Sequence: VWKSGILQLF
Kd (HLA-A*29:02; [12]): 2560 nM | Kd (HLA-A*24:02; [12]): 62.6 nM | Kd (HLA-A*23:01; [12]): 16.5 nM

Sequence: WCSQTDYQY
Kd (HLA-A*26:01; [11]): ≥ 77900 nM | Kd (HLA-A*29:02; [11]): 258 nM | Kd (HLA-A*24:02; [11]): ≥ 77500 nM | Kd (HLA-A*23:01; [11]): ≥ 77700 nM | Kd (HLA-A*30:02; [11]): 342 nM | Kd (HLA-A*01:01 [1]; [11]): 1160 nM

Sequence: WCSQTDYQYL
Kd (HLA-A*26:01; [11]): ≥ 69700 nM | Kd (HLA-A*29:02; [11]): 9280 nM | Kd (HLA-A*24:02; [11]): 15000 nM | Kd (HLA-A*23:01; [11]): 10800 nM | Kd (HLA-A*30:02; [11]): 10600 nM | Kd (HLA-A*01:01 [1]; [11]): 13100 nM

Sequence: YQPESQKFI
Kd (HLA-A*29:02; [13]): 3390 nM | Kd (HLA-A*24:02; [13]): 8480 nM | Kd (HLA-A*23:01; [13]): 7210 nM
